Experimental data published in publication doi:10.1101/2022.11.25.517900 (bioRxiv, 2022).

Biological target: the molecule itself
Assay: cryo-EM structure

B1: Vibrio alginolyticus PomB, full length, non-cleaved (without protease site insertion) (natural protein, UniProt O06874 1-315, looked up)
chain: MDDEDNKCDCPPPGLPLWMGTFADLMSLLMCFFVLLLSFSEMDVLKFKQIAGSMKFAFGVQNQLEVKDIPKGTSIIAQEFRPGRPEPTPIDVIMQQTMDITQQTLEFHEGESDRAGGTKRDEGKLTGGQSPATSTQNNESAEADMQQQQSKEMSQEMETLMESIKKALEREIEQGAIEVENLGQQIVIRMREKGAFPEGSAFLQPKFRPLVRQIAELVKDVPGIVRVSGHTDNRPLDSELYRSNWDLSSQRAVSVAQEMEKVRGFSHQRLRVRGMADTEPLLPNDSDDNRALNRRVEISIMQGEPLYSEEVPVIQ
  binding result: binds
